The target of experiment [1] is Recombinant HIV-1 p24 (HIV-1) (UniProt P04591). Nature of the experiment: forward two-site immuno-PCR; p24 0.1 pg/mL; reporter MAb-DNA 2.5 pM.
Experiment [2] has the same target. Nature of the experiment: forward two-site immuno-PCR; p24 0.1 pg/mL; reporter MAb-DNA 10 pM.
The target is the same in experiment [3]. Nature of the experiment: forward two-site immuno-PCR; p24 0.1 pg/mL; reporter MAb-DNA 5 pM.
Experiment [4] has the same target. As to the kind of experiment: forward two-site immuno-PCR, 10 pM reporter MAb-DNA, capture MAb 739P on particles; p24 at 0.01 pg/mL.
Experiment [5] shares this target. As to the kind of experiment: forward two-site immuno-PCR; p24 0.1 pg/mL; reporter MAb-DNA 15 pM.
Experiment [6] has the same target. Nature of the experiment: forward two-site immuno-PCR, 10 pM reporter MAb-DNA, capture MAb 739P on particles; p24 at 0.1 pg/mL.
For experiment [7] the target is unchanged. Nature of the experiment: method not stated; rate and equilibrium constants listed for commercially available anti-HIV p24 antibodies.
For experiment [8] the target is unchanged. As to the kind of experiment: forward two-site immuno-PCR; p24 0.1 pg/mL; reporter MAb-DNA 50 pM.
Experiment [9] shares this target. Nature of the experiment: forward two-site immuno-PCR, 10 pM reporter MAb-DNA, capture MAb 739P on particles; p24 at 1 pg/mL.
Experiment [10] shares this target. Nature of the experiment: forward two-site immuno-PCR, 10 pM reporter MAb-DNA, capture MAb 739P on particles; p24 at 10 pg/mL.
Experiment [11] shares this target. Nature of the experiment: forward two-site immuno-PCR; p24 0.1 pg/mL; reporter MAb-DNA 20 pM.

This is an account of results in US20150044666A1.

For orientation: Kd means a measure of binding affinity in units of concentration. In general, koff refers to a measure of how fast the partners let go of each other. What is called kon is the rate constant with which the complex forms.

In the case of “NIH AIDS Research & Reference Reagent Program HIV-1 183-H12-5C (antibody)”, the Average ΔThreshold Cycle (ΔCp) over blank turned out to be 0.3 cycles in [1]; 2.2 cycles in experiment [2]; 2.6 cycles in experiment [3]; 2 cycles in [5]; 0.9 cycles in [8]; 1.5 cycles in experiment [11]. The Threshold Cycle (Ct) in experiment [4] came out at 26.6 cycles; in experiment [6], 23.8 cycles; in experiment [9], 20.6 cycles; in [10], 17.7 cycles. In addition, in experiment [7], the Kd was 3.93 nM. In addition, in experiment [7], the koff stood at 5.9e-05 s⁻¹. For the same substance, in experiment [7], the kon amounted to 15000 M⁻¹ s⁻¹.
